Data reported in article PMC10002811, “Timed material self-assembly controlled by circadian clock proteins” (ArXiv, 2024).
Changes are numbered by the printed parent chain. Numbers in names are those of the source.

Legend:
Settings in all cases: both partners purified
KaiC (wild-type) [1] = biological target: T1, KaiC (wild-type) (UniProt Q79PF4 1-519); assay: fluorescence polarisation; standard oscillator reaction: 1.5 μM KaiA, 3.5 μM KaiC, 3.5 μM KaiB at different ratios of KaiB and b-KaiB, 0.2 μM FITC-labeled KaiB K25C; time course over 144 hrs
T1 construct: KaiC, circadian clock protein of cyanobacteria; hexameric ring; In reactions with KaiA the phosphorylation of S431 and T432 cycles over about 24 h; also called WT KaiC; wild-type KaiC; source: recombinantly expressed and purified as previously described
T1 sequence (looked up): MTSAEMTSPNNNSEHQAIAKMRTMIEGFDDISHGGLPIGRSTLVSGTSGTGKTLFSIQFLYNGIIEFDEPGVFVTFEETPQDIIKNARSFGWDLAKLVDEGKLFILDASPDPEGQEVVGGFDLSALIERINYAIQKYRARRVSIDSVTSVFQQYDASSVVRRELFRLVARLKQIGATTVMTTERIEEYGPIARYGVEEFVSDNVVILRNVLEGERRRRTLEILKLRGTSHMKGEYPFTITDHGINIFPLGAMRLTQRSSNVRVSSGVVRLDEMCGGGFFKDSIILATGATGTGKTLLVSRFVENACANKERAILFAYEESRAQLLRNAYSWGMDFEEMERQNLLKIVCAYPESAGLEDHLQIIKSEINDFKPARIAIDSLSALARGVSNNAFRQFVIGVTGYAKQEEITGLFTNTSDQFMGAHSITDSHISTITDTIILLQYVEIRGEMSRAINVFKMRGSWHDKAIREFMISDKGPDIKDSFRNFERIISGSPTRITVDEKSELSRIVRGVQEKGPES

[2] = biological target: T2, pS KaiC (KaiC-EA; S431E, T432A) (UniProt Q79PF4 1-519, S431E | T432A); assay: fluorescence polarisation; colloid-linking conditions: 5.5 μM KaiB (55% b-KaiB), 6.5 μM KaiC (wild-type, pT or pS), 2.2 μM KaiA, 0.4 μM FITC-labeled KaiB K25C; time course
T2 construct: KaiC, circadian clock protein of cyanobacteria, phosphomimetic of the pS431 (night) state; also called pS KaiC mutant; source: recombinantly expressed and purified as previously described
T2 sequence (looked up): T1 sequence (looked up) with S431E, T432A

KaiC (wild-type) [3] = biological target: T1, KaiC (wild-type); assay: pull-down; 6.5 μM KaiC (wild-type, pT or pS) and 5.5 μM KaiB (55% b-KaiB, 45% unlabeled KaiB) in Kai buffer (10% glycerol, 150 mM NaCl, 20 mM Tris-HCl pH 8.0, 5 mM MgCl2, 0.5 mM EDTA, 1 mM ATP); 8 hr at 30°C; b-KaiB and partners removed with streptavidin-coated magnetic beads; supernatant analysed by SDS-PAGE
[4] = biological target: T2, pS KaiC (KaiC-EA; S431E, T432A); assay: as above

B1: FITC-labeled KaiB K25C (natural protein, UniProt Q79PF5 1-102, looked up)
chain: MSPRKTYILKLYVAGNTPNSVRALCTLKNILEVEFQGVYALKVIDVLKNPQLAEEDKILATPTLAKVLPLPVRRIIGDLSDREKVLIGLDLLYGELQDSDDF
modifications: FITC label
notes: KaiB, circadian clock protein of cyanobacteria, with K25C; also called fluorescently labeled KaiB
- binding result (KaiC (wild-type) [1]): binds
- binding result [2]: binds

B2: biotinylated KaiB (natural protein, UniProt Q79PF5 1-102, looked up)
chain: B1 chain with C25K
modifications: biotin, amine-reactive (potential sites: lysine residues); EZ-Link-Sulfo-NHS-LC-Biotin at a 50x molar excess to KaiB
notes: KaiB, circadian clock protein of cyanobacteria; In the assays b-KaiB was mixed with unlabeled KaiB (55% b-KaiB, 45% KaiB); also called b-KaiB; source: recombinantly expressed and purified as previously described; biotinylated with EZ-Link-Sulfo-NHS-LC-Biotin
- binding result (KaiC (wild-type) [3]): binds
- binding result [4]: binds
